Assay results published in PMC3029384, “Dimeric SecA Couples the Preprotein Translocation in an Asymmetric Manner” (PLoS ONE, 2011).

B1: His6-tagged SecB (natural protein, Escherichia coli)
chain: MSEQNNTEMTFQIQRIYTKDISFEAPNAPHVFQKDWQPEVKLDLDTASSQLADDVYEVVLRVTVTASLGEETAFLCEVQQGGIFSIAGIEGTQMAHCLGAYCPNILFPYARECITSMVSRGTFPQLNLAPVNFDALFMNYLQQQAGEGTEEHQ
notes: SecB chaperone, Escherichia coli; The tag is named explicitly only in Materials and for the SecB/proOmpA assembly; also called SecB tetramer; tetrameric SecB
B2: proOmpA (natural protein, Escherichia coli, UniProt P0A910 1-346, looked up)
chain: MKKTAIAIAVALAGFATVAQAAPKDNTWYTGAKLGWSQYHDTGFINNNGPTHENQLGAGAFGGYQVNPYVGFEMGYDWLGRMPYKGSVENGAYKAQGVQLTAKLGYPITDDLDIYTRLGGMVWRADTKSNVYGKNHDTGVSPVFAGGVEYAITPEIATRLEYQWTNNIGDAHTIGTRPDNGMLSLGVSYRFGQGEAAPVVAPAPAPAPEVQTKHFTLKSDVLFNFNKATLKPEGQAALDQLYSQLSNLDPKDGSVVVLGYTDRIGSDAYNQGLSERRAQSVVDYLISKGIPADKISARGMGESNPVTGNTCDNVKQRAALIDCLAPDRRVEIEVKGIKDVVTQPQA
notes: Precursor form (unfolded, diluted out of 6 M urea); also called preprotein; source: kept in 6 M urea before dilution

Columns and labels:
[1] = target: SecA (Escherichia coli) (UniProt P10408); settings: cited from earlier work
[2] = target: the molecule itself; experiment: SEC; SecA monomer 3 uM and SecB monomer 30 uM incubated 1 h at 4 °C in buffer A (20 mM HEPES-KOH, 30 mM KCl, 1 mM DTT, pH 7.4); Superdex G200 analytical column at 4 °C; peak fraction checked by SDS-PAGE
[3] = target: B1; experiment: SEC; SecA monomer 3 uM and preformed SecB/proOmpA 2 uM incubated 1 h at 4 °C in buffer A (20 mM HEPES-KOH, 30 mM KCl, 1 mM DTT, pH 7.4); Superdex G200 analytical column at 4 °C; fractions checked by SDS-PAGE; settings: both partners purified

Molecule: SecA (from UniProt P10408)
Kd [1]: 1000 nM

Molecule: B1
stoichiometry N [2]: 4

Molecule: B2
stoichiometry N [3]: 1 proOmpA per SecB tetramer
